Publication PMC13001094, “Cargo Recognition of Nesprin‑2 by the Dynein Adapter Bicaudal D2 for a Nuclear Positioning Pathway That Is Important for Brain Development” (Biochemistry, 2026)
Blank lines part the entries; values can stand above or below the molecule they belong to.

Legend:
[1] = target: Cytoplasmic dynein (bovine); experiment: two-colour single-molecule assay (TIRF) of reconstituted complexes on microtubules; BicD2, instead of Nesprin-2, labelled with two different colours in DDBN complexes
[2] = target: T1, GST-tagged mouse Nesprin-2 (aa 6123–6421) (mouse, UniProt Q6ZWQ0 6123-6421); experiment: pull-down; GST-tagged Nesprin-1/2 fragment held on glutathione column (not eluted), incubated 30 min with Ni-NTA-purified His6-BicD2-CTD diluted to 125 mM NaCl; washed twice; eluted with 10 mM glutathione, 50 mM Tris pH 8.0, 150 mM NaCl, 1 mM DTT; SDS-PAGE, Coomassie; band ratio normalised to WT = 1; conditions: both partners purified
T1 construct: pGEX6p1 vector; codon-optimised insert from Genscript; also called Nesprin-2-SR52-SR53AD; minimal Nesprin-2 fragment; source: E. coli BL21(DE3)-RIL, purified on glutathione resin (not eluted before the pull-down); not shown: GST, N-terminal, kept
T1 sequence (looked up): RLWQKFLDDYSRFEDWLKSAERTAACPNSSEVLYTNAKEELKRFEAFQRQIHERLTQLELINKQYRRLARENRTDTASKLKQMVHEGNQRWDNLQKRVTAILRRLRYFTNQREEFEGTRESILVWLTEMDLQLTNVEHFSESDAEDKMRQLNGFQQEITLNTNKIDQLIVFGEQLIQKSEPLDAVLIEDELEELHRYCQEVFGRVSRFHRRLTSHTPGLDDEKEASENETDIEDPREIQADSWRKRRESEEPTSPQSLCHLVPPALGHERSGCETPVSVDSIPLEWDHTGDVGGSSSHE

[3] = target: T2, GST-tagged human Nesprin-1 (aa 7997–8328) (human, UniProt Q8NF91 7997-8328); experiment: as above; conditions: both partners purified
T2 construct: Nesprin-1, human, aa 7997-8328 cloned (the results speak of the domain aa 7998-8315: SR70, SR71 and a disordered domain with a LEWD motif); cloned into the same vector (pGEX6p1) as the Nesprin-2 fragment; also called Nesprin-1-SR70-SR71AD; Nesprin-1 fragment; source: E. coli BL21(DE3)-RIL, purified on glutathione resin (not eluted before the pull-down); not shown: GST, N-terminal, kept
T2 sequence (looked up): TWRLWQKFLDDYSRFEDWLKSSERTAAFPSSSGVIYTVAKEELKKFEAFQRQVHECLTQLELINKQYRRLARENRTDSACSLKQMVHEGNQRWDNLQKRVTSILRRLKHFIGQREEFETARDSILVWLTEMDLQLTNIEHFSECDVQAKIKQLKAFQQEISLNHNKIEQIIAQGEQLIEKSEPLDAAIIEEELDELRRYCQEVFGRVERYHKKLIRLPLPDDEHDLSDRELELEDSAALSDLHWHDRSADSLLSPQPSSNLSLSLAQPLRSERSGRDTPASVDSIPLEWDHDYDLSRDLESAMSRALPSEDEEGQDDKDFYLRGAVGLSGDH

[4] = target: T3, GST-tagged Nesprin-2 (aa 6123–6340) (mouse, UniProt Q6ZWQ0 6123-6340); experiment: as above; conditions: both partners purified
T3 construct: lacks the entire intrinsically disordered domain with the LEWD motif; deletion construct of m1; source: E. coli BL21(DE3)-RIL, purified on glutathione resin (not eluted before the pull-down); not shown: GST, N-terminal, kept
T3 sequence (looked up): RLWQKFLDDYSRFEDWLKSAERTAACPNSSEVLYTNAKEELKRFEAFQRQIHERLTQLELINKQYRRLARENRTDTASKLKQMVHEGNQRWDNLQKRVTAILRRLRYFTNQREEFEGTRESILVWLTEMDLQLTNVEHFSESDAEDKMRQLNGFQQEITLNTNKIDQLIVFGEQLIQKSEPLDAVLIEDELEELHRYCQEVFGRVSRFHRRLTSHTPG

[5] = target: T4, Nesprin-2 fragment of the purified minimal Nesprin-2/BicD2 complex used for SEC-MALS (mouse); experiment: SEC-MALS; purified minimal Nesprin-2/BicD2 complex, GST tag on Nesprin-2; methods in the supplement; conditions: both partners purified
T4 chain: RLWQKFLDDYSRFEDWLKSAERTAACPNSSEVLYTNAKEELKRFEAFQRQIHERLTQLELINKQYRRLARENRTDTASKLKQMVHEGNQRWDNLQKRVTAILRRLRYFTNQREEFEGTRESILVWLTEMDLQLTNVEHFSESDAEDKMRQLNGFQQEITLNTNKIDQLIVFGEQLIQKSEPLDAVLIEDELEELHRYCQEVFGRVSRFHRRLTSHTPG

Molecule: Full-length, wild-type human BicD2 (from UniProt Q8TD16-2 1-855) (natural protein)
stoichiometry N (BicD2 per DDBN complex) [1]: 1

binding result [2]: binds
binding result [3]: binds
binding result [4]: binds
B1: His6-tagged human BicD2-CTD (aa 715–804) (domain or fragment, UniProt Q8TD16-2 715-804, looked up)
chain: YENEKAMVTETMMKLRNELKALKEDAATFSSLRAMFATRCDEYITQLDEMQRQLAAAEDEKKTLNSLLRMAIQQKLALTQRLELLELDHE
notes: pET28a vector; source: E. coli LOBSTR BL21(DE3)-RIL, purified (Ni-NTA); not shown: His6, N-terminal, kept

stoichiometry N [5]: 1 BicD2 per Nesprin-2 (2:2 complex)
B2: BicD2-CTD of the purified minimal Nesprin-2/BicD2 complex used for SEC-MALS (domain or fragment, human, UniProt Q8TD16-2 715-804, looked up)
chain: YENEKAMVTETMMKLRNELKALKEDAATFSSLRAMFATRCDEYITQLDEMQRQLAAAEDEKKTLNSLLRMAIQQKLALTQRLELLELDHE
notes: printed protomer mass 10.9 kDa; also called BicD2 protomer (10.9 kDa)
